Data as given in patent US20110136145A1, “METHODS FOR PROMOTING FUSION AND REPROGRAMMING OF SOMATIC CELLS” (THE JOHNS HOPKINS UNIVERSITY, priority 2008, published 2011).

Columns and labels:
[1] = system: ESC-induced Oct4-GFP re-activation in NSCs; assay: CLEAR analysis of ESC fusion-induced reprogramming (PEG-induced fusion of Z-Red ESCs and CIPOE NSCs, flow cytometry)
Text: CLEAR strategy uses engineered ESCs and NSCs for monitoring fusion-induced DsRed expression and reprogramming-induced GFP expression (FIG. 1A). Z-Red ESCs were derived from a clonal ESC line containing one copy of a transgene (CAG-loxP-LacZ::neomycin-polyA-loxP-DsRed.T3) as a Cre recombination excision reporter.
Adult NSCs were isolated from Oct4-GFP (GOF 18-A PE-EGFP) transgenic mice and transduced by retroviruses to stably co-express Cre and the puromycin resistance gene through a bicistronic cassette (termed CIPOE NSCs hereafter). Somatic cells with Oct4-GFP transgene integration have been used previously to investigate reprogramming, in which the regulatory elements of Oct4 direct reliable GFP reactivation from somatic genomes in reprogrammed ESC-like hybrid cells (also see FIG. 3). Multiple CIPOE NSC lines from Oct4-GFP transgenic mice were established, characterized and used for subsequent cell fusion experiments.
To quantitatively analyze the reprogramming-induced Oct4-GFP re-activation, dual-color flow cytometry was used to display and measure the cell population that underwent PEG-induced cell fusion. Viable cells were identified by their typical FSC (Forward Scatter) and SSC (Side Scatter) properties. To ensure appropriate gating for […] and DsRed+ events and to compensate the spectrum crossover of GFP and DsRed signals, the system was first calibrated using multiple control cells, including Z-Red ESCs, CIPOE NSCs, mixed Z-Red ESCs and CIPOE NSCs without PEG. Z-Red ESCs transfected with a constitutive Cre expression plasmid, and CIPOE NSCs transfected with a Cre excision reporter plasmid (FIG. 4A).
ESC fusion-induced Oct4 re-activation from NSCs was quantitatively measured using two different approaches. In the first approach, the reprogramming frequency (Rf) is determined by the ratio of GFP DsRed+ cells to total DsRed+ cells. […] In the second approach, the reprogramming efficacy is determined by the distribution of GFP fluorescence intensities of individual cells from the DsRed+ population (FIG. 4C). This analysis provides a measurement of the efficiency of Oct4-GFP re-activation in NSCs after successful fusion.
The protocol was optimized for PEG-induced cell fusion between ESCs and NSCs to achieve maximum efficiency and minimal toxicity. Equal numbers of ESCs and NSCs were mixed thoroughly and spun down in PBS. The pellet was loosened by gentle tapping and 50% PEG (500 μl for 1×10^7 cells) was added to the cells continuously over one minute while swirling the mixture in 37° C. water bath Next, 2 ml of ESC medium was layered on top of PEG-cell mixture and one-minute incubation in 37° C., followed by low-speed centrifugation at 1,800 rpm for 5 minutes. After removing the supernatant, the pellet was incubated with ESC medium for one minute, washed, resuspended and plated onto gelatin-coated dishes and grown in Dubelcco's Modified Eagle's Medium, 15% fetal bovine serum supplemented with mouse leukemia inhibitory factor (ESGRO), 0.1 mM nonessential amino acids, 0.1 mM β-mercaptoethanol, and 50 U/ml penicillin/50 μg/ml streptomycin (ESC medium). […] The following pharmacological inhibitors were applied in ESC-fusion experiments only during the first 48 hours after fusion. DMOG (5-10 μM; BioMol), Anacardic acid (5-10 μM; Calbiochem), Trichostatin A (TSA, 100 nM-1 μM; Sigma) and azidothymidine (AZT, 1-5 μM; Sigma).

Oct4 promoter = assay: Bisulfite sequencing of Oct4 promoter in CIPOE NSCs; format: cell-based, mouse; conditions: independent of cell fusion
Procedure: (§1) (A) is a schematic drawing of Oct4 promoter with 16 CpG sites, which are located between the proximal enhancer and exon 1. Bisulfite sequencing analysis is performed for genomic DNA extracted from CIPOE, Z-Red ESCs, fusion clone B3, CIPOE-shControl and CIPOE-shG9a NSCs. (B, C) show conventional RT-PCR (B) and quantitative real-time PCR(C) are used to compare the mRNA abundance of Oct4 in CIPOE, Z-Red ESCs, fusion clone B3, CIPOE-shControl and CIPOE-shG9a NSCs. Data represent mean+SEM. (n=3, *. P<0.01, Student's t-test).
(§2) Reprogramming requires erasure of the somatic epigenoine including both histone and DNA modification. […] The impact of G9a knockdown on endogenous Oct4 expression was also evaluated. […] The mRNA abundance of Oct4 expression measured in bulk adult NSC cultures with G9a knocking-down reached around 10% of that in ESCs, while little expression was detected in CIPOE or CIPOE cells expressing the control shRNA.
For bisulfite genomic sequencing, 500 ng of genomic DNA from each sample was digested by EcoRI overnight, followed by boiling for 5 min and incubation in 0.3 M NaOH at 50° C. for 15 min. […] Efficiency of bisulfite conversion was monitored by the presence of unconverted C residues in non-CpG regions, which were only seldom seen. […]

Oct4 = assay: Conventional RT-PCR and quantitative PCR of endogenous Oct4 expression in adult NSCs; format: cell-based, mouse
Procedure: as §1
as §2, with “modification. Next it was further tested whether DNA demethylation of pluripotency gene Oct4 induced by ESC-mediated reprogramming may partially account for the facilitating effects of histone demethylation during reprogramming.” for “modification.”
(§3) For real-time quantitative PCR, total RNAs were purified using RNAeasy kit (Qiagen) and converted to cDNA by SuperScript III (Invitrogen). Triplicate cDNA samples were added to a SYBR-green based quantitative PCR reaction mix and analyzed using the ddCt methods. […]

G9a = assay: Quantitative real-time PCR of G9a expression in CIPOE NSCs; format: cell-based, mouse; conditions: CIPOE cells
Text: Shown is a summary of quantitative real-time PCR analysis of the expression level of G9a in Z-Red ESCs, CIPOE NSCs, CIPOE NSCs with control shRNA or G9a-targeted shRNA. The mRNA abundance was normalized to the levels in CIPOE cells. Values represent mean+SEM (n=3; * P<0.01, Students t-test). […] Shown are results from cell fusion experiments between Z-Red and CIPOE, CIPOE-shControl, or CIPOE-shG9a cells. Values represent mean+SEM (n=3; *- P<0.01 Students t-test). (C) Summary of reprogramming efficacy. Cumulative distribution plots of DsRed+ population with graded GFP fluorescence intensities are shown for comparison of the reprogramming efficacy of Z-Red ESCs with CIPOE-shControl, or CIPOE-shG9a cells at day 2 and day 4 after cell fusion. Values represent mean±SEM (n=3; *: P<0.01, Kolmogorov-Smirnov test).
Next, the molecular identities of epigenetic factors that play critical roles in reprogramming were examined. […] Using a previously validated small short-hairpin RNA (shRNA) for mouse G9a, the expression of endogenous G9a was knocked down in CIPOE cells, as shown by quantitative real-time PCR (FIG. 7A). […]
as §3

[2] = 100 nM, applied only during the first 48 hours after fusion

## CCCCCCCCCCCCCCCc1cccc(O)c1C(=O)O [Anacardic acid]
[1]; 5 μM, applied only during the first 48 hours after fusion
  Effects (on reprogramming): mild reprogramming deficit;

## CC(/C=C/C(=O)NO)=C\[C@@H](C)C(=O)c1ccc(N(C)C)cc1 [TSA, Trichostatin A]
[1]; [2]
  Effects (on reprogramming): pro-differentiation
  Effects (toxicity to the cells): toxic

## N[C@@H]1C[C@H]1c1ccccc1 (racemic) [Tranylcypromine]
[1]; 2 μM, applied only during the first 48 hours after fusion
  Effects (on reprogramming): mild reprogramming deficit

B1: shRNA-G9a: short hairpin RNA for mouse G9a, …, cloned into retroviral vector pUEG (nucleic acid, listed as Mus musculus)
chain: TCTATCGCCTTGAGCCGTTGGCCTTCAGATAGGCTGATTTGGTTGGTGTCTTGCTCTTTCTGTGGGAAGGCTGCGGCTCACTTCCTTCTGACTTCTTGATAATTTTGCATTAGACATTTAACTCTTCTTTCTATGATCTTTCCTTCTAGACACTGAGTTTTTTGGTTGTTGCCTAAAACCTTTTCAGAAATCCCTTCCCTCGCCATCACACTGACATGAGTGTGGGTCTTCCTGGTCCCCACAGTTTGCCTAGTTCTGAGGAAGCATCGAATTCTGGGAACGCCTCATCAATGCCTGCAGTTTTTCATCCCGAGAACTATTCTTGCTTACAAGGGTCTGCTACTGAGATGCTCTGCACAGAGGCTGCCTCTCCTCGCCCTTCCTCTGAAGACCTGCCTCTTCAAGGCAGCCCTGATTCTTCTACCAGTCCCAAACAAAAGCTCTCAAGTCCTGAGGCTGACAAGGGCCCTGAGGAGGAGGAGAACAAGGTCCTTGCCAGGAAGCAGAAGATGCGGACTGTGTTCTCTCAGGCCCAGCTGTGTGCACTCAAGGACAGGTTTCAGAAGCAGAAGTACCTCAGCCTCCAGCAGATGCAAGAACTCTCCTCCATTCTGAACCTGAGCTATAAGCAGGTTAAGACCTGGTTTCAAAACCAAAGGATGAAGTGCAAGCGGTGGCAGAAAAACCAGTGGTTGAAGACTAGCAATGGTCTGATTCAGAAGGGCTCAGCACCAGTGGAGTATCCCAGCATCCATTGCAGCTATCCCCAGGGCTATCTGGTGAACGCATCTGGAAGCCTTTCCATGTGGGGCAGCCAGACTTGGACCAACCCAACTTGGAGCAGCCAGACCTGGACCAACCCAACTTGGAACAACCAGACCTGGACCAACCCAACTTGGAGCAGCCAGGCCTGGACCGCTCAGTCCTGGAACGGCCAGCCTTGGAATGCTGCTCCGCTCCATAACTTCGGGGAGGACTTTCTGCAGCCTTACGTACAGTTGCAGCAAAACTTCTCTGCCAGTGATTTGGAGGTGAATTTGGAAGCCACTAGGGAAAGCCATGCGCATTTTAGCACCCCACAAGCCTTGGAATTATTCCTGAACTACTCTGTGACTCCACCAGGTGAAATATGAGACTTACGCAACATCTGGGCTTAAAGTCAGGGCAAAGCCAGGTTCCTTCCTTCTTCCAAATATTTTCATATTTTTTTTAAAGATTTATTTATTCATTATATGTAAGTACACTGTAGCTGTCTTCAGACACTCCAGAAGAGGGCGTCAGATCTTGTTACGTATGGTTGTGAGCCACCATGTGGTTGCTGGGATTTGAACTCCTGACCTTCGGAAGAGCAGTCGG
modifications: cloned into retroviral vector pUEG
notes: short hairpin RNA for mouse G9a, …, cloned into retroviral vector pUEG
Oct4 promoter
  DNA methylation in Oct4 promoter regions: considerably decreased
Oct4; adult NSCs, conventional and quantitative PCR
  expression of endogenous Oct4: partially re-activated
Oct4; bulk adult NSC cultures, relative to that in ESCs
  mRNA abundance of Oct4 expression: around 10%
[1]; day 2, expressed in CIPOE NSCs
  increase in the reprogramming frequency: 110%
[1]; day 2 and day 4, expressed in CIPOE NSCs
  efficacy of ESC-induced Oct4-GFP re-activation: significantly enhanced
[1]; day 4, expressed in CIPOE NSCs
  increase in the reprogramming frequency: 26%
G9a
  expression of endogenous G9a: knocked down
